This is an account of results in PMC314469, “Protein Interaction Networks by Proteome Peptide Scanning” (PLoS Biology, 2004).

B1: YOL008W 135-148 (peptide)
chain: LISKWTIMPHPNRP
B2: YDL033C 211-223 (peptide)
chain: LAKYAGLPTAEKP
B3: YPL167C 291-304 (peptide)
chain: LEKLGDISDIPVKP
B4: YMR049C 412-424 (peptide)
chain: LIPELPSPKDLRP
B5: YMR168C 296-309 (peptide)
chain: LSGSDYLQSGPRKP
B6: YGR232W 85-98 (peptide)
chain: LEVVKSLYDRPLKP
B7: YBR136W 2029-2042 (peptide)
chain: LESNSMRGYQPFRP
B8: YFR013W 73-85 (peptide)
chain: LKERANKPKRKRP
B9: YAL028W 269-282 (peptide)
chain: LESSPKKHVSPSRP
B10: YOR147W 33-45 (peptide)
chain: LITRLRVPTIKRP
B11: YPR099C 85-97 (peptide)
chain: LHGNTNAPTPLRP
B12: YOL087C 650-662 (peptide)
chain: LELVQPLPASKKP
B13: YLL051C 566-579 (peptide)
chain: LDHAIKLSRNPDKP
B14: YGL131C 1252-1264 (peptide)
chain: LEGNELYPLSYKP
B15: YMR110C 95-107 (peptide)
chain: LHLIEILPKLIKP
B16: YDL058W 339-351 (peptide)
chain: LAFFHNIPKKVRP
B17: YPL004C 227-239 (peptide)
chain: LDDSPVTPGEARP
B18: YGL174W 3-16 (peptide)
chain: LHQYLSETYGPTKP
B19: YDR285W 822-834 (peptide)
chain: LELTNPSPIQIKP
B20: YLR085C 335-347 (peptide)
chain: LESLSMLPEIVRP
B21: YBR056W 390-403 (peptide)
chain: LAPMMQKGNLPKRP
B22: YLR054C 309-322 (peptide)
chain: LGIDKRSSTKPTKP
B23: YML010W 362-374 (peptide)
chain: LIPVQELPLLLKP
B24: YOL156W 41-54 (peptide)
chain: LDANEPPIDLPQKP
B25: YGR109W-B 563-576 (peptide)
chain: KYREIIRNDLPPRP
B26: YOR023C 257-270 (peptide)
chain: LDEQPGFQILPFKP
B27: YOR365C 124-137 (peptide)
chain: LSGIQDNLLSPLKP
B28: YPL029W 708-720 (peptide)
chain: LDRLKKNPYAHKP
B29: YGL251C 1061-1073 (peptide)
chain: KYIKEKGPSSIKP
B30: YLR427W 248-260 (peptide)
chain: LSGSIIGPKRVKP
B31: YER093C 582-594 (peptide)
chain: LDVLKIKPLPYKP
B32: YGR086C 227-239 (peptide)
chain: LDDSPVTPGETRP
B33: YLR428C 53-65 (peptide)
chain: LEARTNFPLILRP
B34: YER101C 153-165 (peptide)
chain: LIDPRVDPILMRP
B35: YKL048C 110-123 (peptide)
chain: LGKVVAVKIIPKKP
B36: YJL095W 372-385 (peptide)
chain: LFGSGIGEEAPTKP
B37: YNL213C 178-191 (peptide)
chain: LIARNVRTFKPFKP
B38: YGR198W 51-64 (peptide)
chain: LHYHVIGSNGPAKP
B39: YAL017W 1330-1343 (peptide)
chain: LIKSILNRSVPKRP
B40: YOL078W 925-937 (peptide)
chain: LHLEKMKPDLKKP
B41: YHR204W 395-408 (peptide)
chain: LDNILPLEWYPLRP
B42: YOL021C 286-298 (peptide)
chain: LEGSVSLPRFSKP
B43: YIL171W 41-54 (peptide)
chain: LDATEAPIDLPQKP
B44: YJL219W 41-54 (peptide)
chain: LDATEPPIDLPQKP
B45: YDR392W 289-302 (peptide)
chain: LFDGPENVINPLKP
B46: YGR230W 120-133 (peptide)
chain: LEFVRGKQNIPRKP
B47: YOL072W 276-289 (peptide)
chain: LILGKMVKWGPLRP
B48: YFL004W 802-814 (peptide)
chain: LEVPERIPEVLRP
B49: YNL284C 230-242 (peptide)
chain: LEKRGRVPLQARP
B50: YLR429W 427-439 (peptide)
chain: LEEKKEQPKVEKP
B51: YLL015W 4-16 (peptide)
chain: LEVVDGSPYGYRP
B52: YGR193C 231-243 (peptide)
chain: LDLSNIKPIQLKP
B53: YLR193C 56-68 (peptide)
chain: LKKSGKLPTWVKP
B54: YJR066W 2073-2086 (peptide)
chain: LELAVPGTYFPGKP

The experiment concerns the target T1, Abp1 SH3 (ABP1_YEAST), P15891.
T1 chain: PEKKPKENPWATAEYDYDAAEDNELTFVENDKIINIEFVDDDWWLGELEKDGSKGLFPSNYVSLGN
In words: SPOT array.
With B1, the normalised SPOT signal, Boehringer light units (BLU); mean over the file's lines of this peptide stood at 1030.

Turning to B2, the normalised SPOT signal, Boehringer light units (BLU); mean over the file's lines of this peptide stood at 55.9.

As for B3, the normalised SPOT signal, Boehringer light units (BLU); mean over the file's lines of this peptide was 138.

In the case of B4, the normalised SPOT signal, Boehringer light units (BLU); mean over the file's lines of this peptide came to 81.6.

Regarding B5, the normalised SPOT signal, Boehringer light units (BLU); mean over the file's lines of this peptide turned out to be 75.2.

B6 had a normalised SPOT signal, Boehringer light units (BLU); mean over the file's lines of this peptide of 63.6.

B7 registered a normalised SPOT signal, Boehringer light units (BLU); mean over the file's lines of this peptide of 250.

Take B8: the normalised SPOT signal, Boehringer light units (BLU); mean over the file's lines of this peptide was 157.

As for B9, the normalised SPOT signal, Boehringer light units (BLU); mean over the file's lines of this peptide was determined as 184.

In the case of B10, the normalised SPOT signal, Boehringer light units (BLU); mean over the file's lines of this peptide stood at 748.

As to B11, the normalised SPOT signal, Boehringer light units (BLU); mean over the file's lines of this peptide came out at 69.

In turn, B12 returned a normalised SPOT signal, Boehringer light units (BLU); mean over the file's lines of this peptide of 118.

Take B13: the normalised SPOT signal, Boehringer light units (BLU); mean over the file's lines of this peptide is 97.5.

The molecule B14 had a normalised SPOT signal, Boehringer light units (BLU); mean over the file's lines of this peptide of 65.6.

Consider B15, for which the normalised SPOT signal, Boehringer light units (BLU); mean over the file's lines of this peptide came out at 110.

B16 registered a normalised SPOT signal, Boehringer light units (BLU); mean over the file's lines of this peptide of 221.

As for B17, the normalised SPOT signal, Boehringer light units (BLU); mean over the file's lines of this peptide worked out at 57.3.

B18 had a normalised SPOT signal, Boehringer light units (BLU); mean over the file's lines of this peptide of 39.

Molecule B19 gave a normalised SPOT signal, Boehringer light units (BLU); mean over the file's lines of this peptide of 82.9.

Turning to B20, the normalised SPOT signal, Boehringer light units (BLU); mean over the file's lines of this peptide amounted to 118.

For B21, the normalised SPOT signal, Boehringer light units (BLU); mean over the file's lines of this peptide was determined as 3410.

B22 returned a normalised SPOT signal, Boehringer light units (BLU); mean over the file's lines of this peptide of 188.

Regarding B23, the normalised SPOT signal, Boehringer light units (BLU); mean over the file's lines of this peptide was found to be 74.2.

In the case of B24, the normalised SPOT signal, Boehringer light units (BLU); mean over the file's lines of this peptide worked out at 72.3.

Take B25: the normalised SPOT signal, Boehringer light units (BLU); mean over the file's lines of this peptide was 86.

As to B26, the normalised SPOT signal, Boehringer light units (BLU); mean over the file's lines of this peptide amounted to 160.

B27 showed a normalised SPOT signal, Boehringer light units (BLU); mean over the file's lines of this peptide of 110.

In turn, B28 had a normalised SPOT signal, Boehringer light units (BLU); mean over the file's lines of this peptide of 577.

As to B29, the normalised SPOT signal, Boehringer light units (BLU); mean over the file's lines of this peptide stood at 104.

The molecule B30 gave a normalised SPOT signal, Boehringer light units (BLU); mean over the file's lines of this peptide of 466.

With B31, the normalised SPOT signal, Boehringer light units (BLU); mean over the file's lines of this peptide is 2070.

For B32, the normalised SPOT signal, Boehringer light units (BLU); mean over the file's lines of this peptide was 64.5.

Take B33: the normalised SPOT signal, Boehringer light units (BLU); mean over the file's lines of this peptide is 84.3.

Consider B34, for which the normalised SPOT signal, Boehringer light units (BLU); mean over the file's lines of this peptide is 75.9.

Take B35: the normalised SPOT signal, Boehringer light units (BLU); mean over the file's lines of this peptide amounted to 185.

Turning to B36, the normalised SPOT signal, Boehringer light units (BLU); mean over the file's lines of this peptide turned out to be 118.

B37 returned a normalised SPOT signal, Boehringer light units (BLU); mean over the file's lines of this peptide of 176.

In turn, B38 returned a normalised SPOT signal, Boehringer light units (BLU); mean over the file's lines of this peptide of 60.8.

For the molecule B39, the normalised SPOT signal, Boehringer light units (BLU); mean over the file's lines of this peptide was found to be 324.

B40 returned a normalised SPOT signal, Boehringer light units (BLU); mean over the file's lines of this peptide of 88.4.

The molecule B41 displayed a normalised SPOT signal, Boehringer light units (BLU); mean over the file's lines of this peptide of 84.7.

For B42, the normalised SPOT signal, Boehringer light units (BLU); mean over the file's lines of this peptide was determined as 76.1.

B43: the normalised SPOT signal, Boehringer light units (BLU); mean over the file's lines of this peptide amounted to 77.8.

Molecule B44 came in with a normalised SPOT signal, Boehringer light units (BLU); mean over the file's lines of this peptide of 125.

In the case of B45, the normalised SPOT signal, Boehringer light units (BLU); mean over the file's lines of this peptide turned out to be 35.

For B46, the normalised SPOT signal, Boehringer light units (BLU); mean over the file's lines of this peptide was 800.

In turn, B47 gave a normalised SPOT signal, Boehringer light units (BLU); mean over the file's lines of this peptide of 404.

B48: the normalised SPOT signal, Boehringer light units (BLU); mean over the file's lines of this peptide came out at 14.9.

B49 yielded a normalised SPOT signal, Boehringer light units (BLU); mean over the file's lines of this peptide of 1240.

The molecule B50 came in with a normalised SPOT signal, Boehringer light units (BLU); mean over the file's lines of this peptide of 86.1.

Consider B51, for which the normalised SPOT signal, Boehringer light units (BLU); mean over the file's lines of this peptide stood at 0.

For the molecule B52, the normalised SPOT signal, Boehringer light units (BLU); mean over the file's lines of this peptide is 176.

The molecule B53 had a normalised SPOT signal, Boehringer light units (BLU); mean over the file's lines of this peptide of 40.8.

On to B54, for which the normalised SPOT signal, Boehringer light units (BLU); mean over the file's lines of this peptide came to 40.
